Data on 167 variants can be found in the RNAGym collection of RNA variant scans (doi:10.7554/elife.80360).

B1: HDV Ribozyme (parent)
chain: GGCCGGCAUGGUCCCAGCCUCCUCGCUGGCGCCGGCUGGGCAACAUUCCGAGGGGACCGUCCCCUCGGUAAUGGCGAAUGGGACCCA

In the data set the parent is B1. Put plainly: self-cleavage, relative activity (ratio to wild type); higher = more cleavage; co-transcriptional.
Regarding G39A C49G, the self-cleavage was 0.366.
Turning to C41G G73C, the self-cleavage was found to be 0.877.
In the case of C21U G67A, the self-cleavage was 0.158.
To U37G U60A belongs 0.0504; to A16U U23A, 0.739.
Turning to G25C A43G, the self-cleavage was 0.
With G31C U72G the figure was 0.128; with G74A G81A, 0.213; with C3U G29A, 0.0154.
For U23G U60C, the self-cleavage turned out to be 0.831.
Turning to C3A G55A, the self-cleavage came to 0.705.
With C13U A42U the figure was 0.125; with C41G C64G, 0.536; with U37A U47G, 0.222.
In the case of G25A A71G, the self-cleavage stood at 0.0594.
As for C41A G74C, the self-cleavage was found to be 0.366.
With G25U C62A the figure was 0.138.
With U27C U37G the figure was 0.0923; with U9C G10C, 0.767.
With A8C C33G the figure was 0.0923; with A45C C58U, 0.831.
As to C15A U27A, the self-cleavage came out at 0.594.
To G59U A71C belongs 0.895; to U12C G68C, 0.145.
Regarding C33U G67A, the self-cleavage turned out to be 0.749.
As for G34U G52A, the self-cleavage turned out to be 0.208.
To G40C A56C belongs 0.197; to C30G G76C, 0.117.
To G35A C75U belongs 0.133; to A8C C66A, 0.831.
Consider G38C C58U, for which the self-cleavage was 0.408.
To G28C G67U belongs 0; to C7A C14A, 0.123; to C49A G81C, 0.189.
Turning to C19G C48G, the self-cleavage turned out to be 0.148.
With G2C G52C the figure was 0; with C4U A83C, 0.111.
To G59A A71G belongs 0.984.
With G11U U37A the figure was 0.124; with C30A C32G, 0.101; with G29C A71U, 0.122.
As for C4G C22G, the self-cleavage worked out at 0.
For the variant G11C G52C, the self-cleavage stood at 0.266.
With C30A U37C the figure was 0.199.
To A77C A78G belongs 0.151; to C21G A77U, 0.0426; to U27A A83G, 0.723.
In the case of C3U C61A, the self-cleavage came out at 0.801.
With C26A G73C, the self-cleavage stood at 0.522.
As for C36U A71G, the self-cleavage is 0.653.
For U37A G76U, the self-cleavage stood at 0.469.
On to A70U U72C, for which the self-cleavage came to 0.653.
With C13U A77C the figure was 0.293.
Consider C21A G39U, for which the self-cleavage was found to be 0.945.
For the variant G73A A78U, the self-cleavage is 0.106.
With G25U G54C the figure was 0.122; with G17A G76C, 0.665.
As to G1U G17C, the self-cleavage was 0.341.
For G40C C41U, the self-cleavage turned out to be 0.629.
Take G38C G81U: the self-cleavage amounted to 0.0779.
For G2U G68U, the self-cleavage amounted to 0.134.
To C13A C58U belongs 0.415; to C63A G82C, 0.122; to G25U C48U, 0.102.
Regarding C7U G54C, the self-cleavage was determined as 0.884.
With G1A U9C the figure was 0.369.
With A16G A51C the figure was 1.05; with C19G G67C, 0.0287; with U12C G50C, 0.434.
To C13U A16U belongs 1.11; to U60C C63A, 1.04; to A51G U72A, 0.665.
Consider G6A U72C, for which the self-cleavage was 0.219.
For G28U A70G, the self-cleavage worked out at 0.0707.
For the variant C24G C85U, the self-cleavage was 0.107.
To G53A A71G belongs 0.941; to U23G G76A, 0.895; to G52U G73A, 0.546.
With C21U G29C the figure was 0.0773; with C30U A71G, 0.633; with G53A G76U, 1.11.
Consider G5A C22U, for which the self-cleavage was found to be 0.0831.
For C36A G50C, the self-cleavage came to 0.113.
With C15U C18A the figure was 0.0639.
In the case of G50C G54C, the self-cleavage worked out at 0.32.
U9A U47A: the self-cleavage came to 1.09.
Turning to C15A C61G, the self-cleavage turned out to be 0.508.
To C57A U72C belongs 0.856; to G11C A83G, 0.123.
Take G11U U60A: the self-cleavage is 0.277.
For A8G G50C, the self-cleavage was 1.17.
Turning to G29A G59U, the self-cleavage came out at 0.149.
With C7U G82C the figure was 0.227; with C3A G68U, 0.465.
For the variant C15U C58U, the self-cleavage was found to be 0.811.
Take U46C C66G: the self-cleavage was 0.594.
With G2U C3U the figure was 0.0228; with C4A G31C, 0.0739; with A77G A83G, 0.906.
To G28C U69A belongs 0.123; to G25U U69G, 0.244.
As for C22A C57A, the self-cleavage turned out to be 0.208.
To A16G G59U belongs 1.11.
For G1A G54A, the self-cleavage was 0.172.
As to C18U C63U, the self-cleavage was found to be 0.733.
To U65A G82U belongs 0.217; to A8U G31A, 0.405.
U46A A71U: the self-cleavage came out at 0.95.
To G28C A56C belongs 0; to G25A A77U, 0.
With U23G G31C the figure was 0.178.
With C13G C32G the figure was 0; with G34C G50U, 0.175.
U27G A42C: the self-cleavage came out at 0.185.
Regarding A8G G76U, the self-cleavage was 0.831.
Turning to C15U G35C, the self-cleavage is 0.0723.
To G5U A77G belongs 0.227; to A56U C57G, 1.08.
To C15A A43G belongs 0.323; to C63A G80U, 0.2.
As for G40A C64U, the self-cleavage came to 0.925.
With G35A G82U, the self-cleavage turned out to be 0.241.
In the case of U12G G54C, the self-cleavage was 0.831.
C33U G54C: the self-cleavage came to 0.623.
With C19A G74A the figure was 0.0755; with G11U G54U, 0.422; with G28U C32U, 0.041.
With C48A A77U, the self-cleavage amounted to 0.673.
With U27A A42G the figure was 0.361; with C36G A83G, 0.151; with C4G A71U, 0.156.
For G34A G39C, the self-cleavage was found to be 0.0707.
With C66U U79G the figure was 0.453.
To C21U A42C belongs 0.203; to U37A G55U, 0.0723.
With C49A G80U the figure was 0.188; with G2A C41A, 0.168.
As to G17A A43G, the self-cleavage was 0.277.
With A42G A51G, the self-cleavage was 0.571.
To C44A U46A belongs 0.677; to C41U A87U, 1.
As for C36A A77G, the self-cleavage stood at 0.0791.
Regarding C18U C57G, the self-cleavage came to 0.831.
With A42C G52C the figure was 0.359; with C4G C44A, 0.0346; with A42C C57A, 0.373.
As for C14U A51C, the self-cleavage is 1.19.
Regarding G34U C57G, the self-cleavage was 0.178.
Turning to G31A G76C, the self-cleavage worked out at 0.469.
To A42U G76U belongs 0.745.
To C21U U46C belongs 0.386.
In the case of C41A G73C, the self-cleavage is 0.554.
As for C3A G59A, the self-cleavage is 0.739.
With C36A G80U the figure was 0.0825.
For the variant G25C C41G, the self-cleavage turned out to be 0.
To C3U C32U belongs 0.338; to A56U U69G, 0.959.
As for G53C A77G, the self-cleavage was 0.88.
For the variant U46G A87C, the self-cleavage was determined as 0.966.
With G5U G55U the figure was 0.394.
With U9G G17A, the self-cleavage came out at 0.225.
To C15G G73U belongs 0.147; to U27A G73U, 0.261.
To U46C C48U belongs 0.655.
On to G2A C7U, for which the self-cleavage stood at 0.0852.
Regarding U72A G82U, the self-cleavage turned out to be 0.225.
For A51C C75A, the self-cleavage is 0.0449.
